Laboratory results reported in article PMC10716122.
Each block holds one substance with its values, some of them ahead of it.

What was measured:
[1] = molecular target: LINE-1 (L1) ORF1p (human) (UniProt Q9UN81); test: not stated; formation of the ORF1p trimer with or without cGAS, Supplementary Fig. 2o; method not given
[2] = molecular target: TRIM41 (UniProt Q8WV44); test: co-immunoprecipitation; conditions: reference: wild-type cGAS

stoichiometry N [1]: 3
Substance: LINE-1 (L1) ORF1p (from UniProt Q9UN81 1-338) (natural protein)

binding against the reference ([2]; sites S120): weaker
Substance: cGAS (from UniProt Q8N884) S120A

binding against the reference ([2]; sites S305): weaker
Substance: cGAS (from UniProt Q8N884) S305A
